B1: Scaffold protein ILK (Homo sapiens), Q13418 (parent)
chain: MDDIFTQCREGNAVAVRLWLDNTENDLNQGDDHGFSPLHWACREGRSAVVEMLIMRGARINVMNRGDDTPLHLAASHGHRDIVQKLLQYKADINAVNEHGNVPLHYACFWGQDQVAEDLVANGALVSICNKYGEMPVDKAKAPLRELLRERAEKMGQNLNRIPYKDTFWKGTTRTRPRNGTLNKHSGIDFKQLNFLTKLNENHSGELWKGRWQGNDIVVKVLKVRDWSTRKSRDFNEECPRLRIFSHPNVLPVLGACQSPPAPHPTLITHWMPYGSLYNVLHEGTNFVVDQSQAVKFALDMARGMAFLHTLEPLIPRHALNSRSVMIDEDMTARISMADVKFSFQCPGRMYAPAWVAPEALQKKPEDTNRRSADMWSFAVLLWELVTREVPFADLSNMEIGMKVALEGLRPTIPPGISPHVCKLMKICMNEDPAKRPKFDMIVPILEKMQDK
partner: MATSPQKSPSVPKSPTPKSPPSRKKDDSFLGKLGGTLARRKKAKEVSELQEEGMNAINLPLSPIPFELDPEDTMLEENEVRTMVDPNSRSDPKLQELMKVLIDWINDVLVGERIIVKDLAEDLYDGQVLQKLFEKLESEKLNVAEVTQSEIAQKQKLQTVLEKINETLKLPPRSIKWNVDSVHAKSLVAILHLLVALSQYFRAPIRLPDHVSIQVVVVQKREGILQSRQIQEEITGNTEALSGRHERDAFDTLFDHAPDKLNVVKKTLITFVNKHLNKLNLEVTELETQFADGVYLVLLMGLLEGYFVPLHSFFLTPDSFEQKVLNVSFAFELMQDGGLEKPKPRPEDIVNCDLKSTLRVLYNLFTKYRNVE

Variants of: B1
Conditions: with parva_human PARVA

Variant | effect of a mutation on the interaction
M402A;K403A | disrupting interaction

Source: IntAct's records for PubMed 23877428
